The values that follow come from US20160279196A1 (US Dept. of Health and Human Services, published 2016).

The target of assay [1] is T1, naturally processed and presented SSX-2 protein on SSX-2+/HLA-A2+ target cells (human). The assay can be described thus: cell-based or functional assay.
Assay [2] addresses T1, naturally processed and presented SSX-2 …. Nature of the assay: cell-based or functional assay. The source holds these as a separate data set.

Read-outs that look alike come from different tables or passages of the source.

B1: SSX-2 TCR (HLA-A2 restricted TCR from a natural T cell clone, TRAV14/DV4*01 and TRBV15*02-CB1; expressed from the vector comprising SEQ ID NO: 27) (TCR)
TCR alpha: MSLSSLLKVVTASLWLGPGIAQKITQTQPGMFVQEKEAVTLDCTYDTSDPSYGLFWYKQPSSGEMIFLIYQGSYDQQNATEGRYSLNFQKARKSANLVISASQLGDSAMYFCAMTSGFGNEKLTFGTGTRLTIIPNIQNPDPAVYQLRDSKSSDKSVCLFTDFDSQTNVSQSKDSDVYITDKTVLDMRSMDFKSNSAVAWSNKSDFACANAFNNSIIPEDTFFPSPESSCDVKLVEKSFETDTNLNFQNLSVIGFRILLLKVAGFNLLMTLRLWSS
TCR beta: MGPGLLHWMALCLLGTGHGDAMVIQNPRYQVTQFGKPVTLSCSQTLNHNVMYWYQQKSSQAPKLLFHYYDKDFNNEADTPDNFQSRRPNTSFCFLDIRSPGLGDAAMYLCATSRGQGGQPQHFGDGTRLSILEDLNKVFPPEVAVFEPSEAEISHTQKATLVCLATGFFPDHVELSWWVNGKEVHSGVSTDPQPLKEQPALNDSRYCLSSRLRVSATFWQNPRNHFRCQVQFYGLSENDEWTQDRAKPVTQIVSAEAWGRADCGFTSVSYQQGVLSATILYEILLGKATLYAVLVSALVLMAMVKRKDF
For the molecule B1, in assay [1], the “interferon-γ levels (pg/ml), co-culture with 293-A2-SSX2 cells” value amounted to 29800 pg/mL; the “interferon-γ levels (pg/ml), co-culture with 624 mel cells” value (from here on “interferon-γ levels … with 624 mel cells”) was determined as 27300 pg/mL; the “interferon-γ levels (pg/ml), co-culture with 938-A2 mel cells” value came to 37000 pg/mL; the “interferon-γ levels (pg/ml), co-culture with 1300 mel cells” value (“interferon-γ levels … with 1300 mel cells” below) was 2560 pg/mL. Further, in assay [1], the “interferon-γ levels (pg/ml), co-culture with COS-A2-SSX2 cells” value was found to be 52600 pg/mL; the “interferon-γ levels (pg/ml), co-culture with K562-A2- Erythroleukemia cells” value was found to be 12500 pg/mL; the “interferon-γ levels (pg/ml), co-culture with SKOV3 Ovarian cells” value is 2410 pg/mL; the “interferon-γ levels (pg/ml), co-culture with Skmel 37 mel cells” value was determined as 6640 pg/mL. Further, the “interferon-γ levels (pg/ml), co-culture with U251 Glioma cells” value in assay [1] came to 16700 pg/mL. Besides, in assay [2], the “interferon-γ levels (pg/ml), co-culture with 293-A2-SSX2 cells” value amounted to 52500 pg/mL; the “interferon-γ levels … with 624 mel cells” value is 60200 pg/mL; the “interferon-γ levels (pg/ml), co-culture with 938-A2 mel cells” value amounted to 46100 pg/mL; the “interferon-γ levels … with 1300 mel cells” value was determined as 3160 pg/mL. Also, in assay [2], the “interferon-γ levels (pg/ml), co-culture with COS-A2-SSX2 cells” value was determined as 85900 pg/mL; the “interferon-γ levels (pg/ml), co-culture with K562-A2- Erythroleukemia cells” value came to 12800 pg/mL; the “interferon-γ levels (pg/ml), co-culture with SKOV3 Ovarian cells” value is 11000 pg/mL; the “interferon-γ levels (pg/ml), co-culture with Skmel 37 cells” value (“interferon-γ levels … with Skmel 37 cells” below) stood at 8940 pg/mL. In assay [2], the “interferon-γ levels (pg/ml), co-culture with U251 Glioma cells” value was found to be 22900 pg/mL.

B2: codon-optimized SSX-2 TCR (expressed from the vector comprising SEQ ID NO: 29) (TCR)
TCR alpha: MSLSSLLKVVTASLWLGPGIAQKITQTQPGMFVQEKEAVTLDCTYDTSDPSYGLFWYKQPSSGEMIFLIYQGSYDQQNATEGRYSLNFQKARKSANLVISASQLGDSAMYFCAMTSGFGNEKLTFGTGTRLTIIPNIQNPDPAVYQLRDSKSSDKSVCLFTDFDSQTNVSQSKDSDVYITDKTVLDMRSMDFKSNSAVAWSNKSDFACANAFNNSIIPEDTFFPSPESSCDVKLVEKSFETDTNLNFQNLSVIGFRILLLKVAGFNLLMTLRLWSS
TCR beta: MGPGLLHWMALCLLGTGHGDAMVIQNPRYQVTQFGKPVTLSCSQTLNHNVMYWYQQKSSQAPKLLFHYYDKDFNNEADTPDNFQSRRPNTSFCFLDIRSPGLGDAAMYLCATSRGQGGQPQHFGDGTRLSILEDLNKVFPPEVAVFEPSEAEISHTQKATLVCLATGFFPDHVELSWWVNGKEVHSGVSTDPQPLKEQPALNDSRYCLSSRLRVSATFWQNPRNHFRCQVQFYGLSENDEWTQDRAKPVTQIVSAEAWGRADCGFTSVSYQQGVLSATILYEILLGKATLYAVLVSALVLMAMVKRKDF
As for B2, in assay [1], the “interferon-γ levels (pg/ml), co-culture with 293-A2-SSX2 cells” value came out at 37500 pg/mL; the “interferon-γ levels … with 624 mel cells” value was 37500 pg/mL; the “interferon-γ levels (pg/ml), co-culture with 938-A2 mel cells” value amounted to 46300 pg/mL; the “interferon-γ levels … with 1300 mel cells” value worked out at 2600 pg/mL. For the same molecule, in assay [1], the “interferon-γ levels (pg/ml), co-culture with COS-A2-SSX2 cells” value came to 64100 pg/mL; the “interferon-γ levels (pg/ml), co-culture with K562-A2- Erythroleukemia cells” value came out at 21300 pg/mL; the “interferon-γ levels (pg/ml), co-culture with SKOV3 Ovarian cells” value stood at 2530 pg/mL; the “interferon-γ levels (pg/ml), co-culture with Skmel 37 mel cells” value worked out at 8870 pg/mL. For the same molecule, the “interferon-γ levels (pg/ml), co-culture with U251 Glioma cells” value in assay [1] stood at 19200 pg/mL. Further, in assay [2], the “interferon-γ levels (pg/ml), co-culture with 293-A2-SSX2 cells” value was determined as 49100 pg/mL; the “interferon-γ levels … with 624 mel cells” value amounted to 47100 pg/mL; the “interferon-γ levels (pg/ml), co-culture with 938-A2 mel cells” value is 51200 pg/mL; the “interferon-γ levels … with 1300 mel cells” value stood at 3050 pg/mL. In assay [2], the “interferon-γ levels (pg/ml), co-culture with COS-A2-SSX2 cells” value stood at 138000 pg/mL; the “interferon-γ levels (pg/ml), co-culture with K562-A2- Erythroleukemia cells” value is 13600 pg/mL; the “interferon-γ levels (pg/ml), co-culture with SKOV3 Ovarian cells” value stood at 22500 pg/mL; the “interferon-γ levels … with Skmel 37 cells” value came to 11400 pg/mL. Also, in assay [2], the “interferon-γ levels (pg/ml), co-culture with U251 Glioma cells” value was 21400 pg/mL.

B3: codon-optimized human-mouse chimera SSX-2 TCR (codon-optimized SSX-2 TCR including mouse constant region; expressed from the vector comprising SEQ ID NO: 30) (TCR)
TCR alpha: MSLSSLLKVVTASLWLGPGIAQKITQTQPGMFVQEKEAVTLDCTYDTSDPSYGLFWYKQPSSGEMIFLIYQGSYDQQNATEGRYSLNFQKARKSANLVISASQLGDSAMYFCAMTSGFGNEKLTFGTGTRLTIIPNDIQNPEPAVYQLKDPRSQDSTLCLFTDFDSQINVPKTMESGTFITDKTVLDMKAMDSKSNGAIAWSNQTSFTCQDIFKETNATYPSSDVPCDATLTEKSFETDMNLNFQNLSVMGLRILLLKVAGFNLLMTLRLWSS
TCR beta: MGPGLLHWMALCLLGTGHGDAMVIQNPRYQVTQFGKPVTLSCSQTLNHNVMYWYQQKSSQAPKLLFHYYDKDFNNEADTPDNFQSRRPNTSFCFLDIRSPGLGDAAMYLCATSRGQGGQPQHFGDGTRLSILEDLRNVTPPKVSLFEPSKAEIANKQKATLVCLARGFFPDHVELSWWVNGKEVHSGVSTDPQAYKESNYSYCLSSRLRVSATFWHNPRNHFRCQVQFHGLSEEDKWPEGSPKPVTQNISAEAWGRACGITSSYQQGVLSATILYEILLGKATLYAVLVSTLVVMAMVKRKNS
Turning to B3, in assay [1], the “interferon-γ levels (pg/ml), co-culture with 293-A2-SSX2 cells” value turned out to be 37300 pg/mL; the “interferon-γ levels … with 624 mel cells” value came out at 47000 pg/mL; the “interferon-γ levels (pg/ml), co-culture with 938-A2 mel cells” value is 51100 pg/mL; the “interferon-γ levels … with 1300 mel cells” value is 2720 pg/mL. For the same molecule, in assay [1], the “interferon-γ levels (pg/ml), co-culture with COS-A2-SSX2 cells” value turned out to be 56900 pg/mL; the “interferon-γ levels (pg/ml), co-culture with K562-A2- Erythroleukemia cells” value was 17400 pg/mL; the “interferon-γ levels (pg/ml), co-culture with SKOV3 Ovarian cells” value amounted to 2220 pg/mL; the “interferon-γ levels (pg/ml), co-culture with Skmel 37 mel cells” value was 10400 pg/mL. Further, in assay [1], the “interferon-γ levels (pg/ml), co-culture with U251 Glioma cells” value worked out at 19000 pg/mL. Besides, in assay [2], the “interferon-γ levels (pg/ml), co-culture with 293-A2-SSX2 cells” value came out at 47300 pg/mL; the “interferon-γ levels … with 624 mel cells” value was 57700 pg/mL; the “interferon-γ levels (pg/ml), co-culture with 938-A2 mel cells” value came to 40000 pg/mL; the “interferon-γ levels … with 1300 mel cells” value came to 3460 pg/mL. Besides, in assay [2], the “interferon-γ levels (pg/ml), co-culture with COS-A2-SSX2 cells” value was 164000 pg/mL; the “interferon-γ levels (pg/ml), co-culture with K562-A2- Erythroleukemia cells” value worked out at 13600 pg/mL; the “interferon-γ levels (pg/ml), co-culture with SKOV3 Ovarian cells” value worked out at 9860 pg/mL; the “interferon-γ levels … with Skmel 37 cells” value was determined as 10600 pg/mL. Besides, the “interferon-γ levels (pg/ml), co-culture with U251 Glioma cells” value in assay [2] came out at 20000 pg/mL.
